Assay results as given in patent publication US20080044419A1, “Treatment of T Cell Mediated Diseases by Inhibition of Fgfr3” (Fibron Ltd., priority 2003, published 2008).
Positions count from the first letter of the chain named. Values belong to the molecule of their own block, whether it stands above or below them.

Legend:
FGFR3 [1] = biological target: T1, FGFR3 (Homo sapiens, UniProt P22607); assay: Affinity to FGFR3 measured by FACS; type: binding
FGFR3 [2] = biological target: T1, FGFR3; assay: FDCP-FGFR3 proliferation assay performed with FGF9; type: cell-based; details: dimeric dHLX format

T1 sequence (P22607 23-806): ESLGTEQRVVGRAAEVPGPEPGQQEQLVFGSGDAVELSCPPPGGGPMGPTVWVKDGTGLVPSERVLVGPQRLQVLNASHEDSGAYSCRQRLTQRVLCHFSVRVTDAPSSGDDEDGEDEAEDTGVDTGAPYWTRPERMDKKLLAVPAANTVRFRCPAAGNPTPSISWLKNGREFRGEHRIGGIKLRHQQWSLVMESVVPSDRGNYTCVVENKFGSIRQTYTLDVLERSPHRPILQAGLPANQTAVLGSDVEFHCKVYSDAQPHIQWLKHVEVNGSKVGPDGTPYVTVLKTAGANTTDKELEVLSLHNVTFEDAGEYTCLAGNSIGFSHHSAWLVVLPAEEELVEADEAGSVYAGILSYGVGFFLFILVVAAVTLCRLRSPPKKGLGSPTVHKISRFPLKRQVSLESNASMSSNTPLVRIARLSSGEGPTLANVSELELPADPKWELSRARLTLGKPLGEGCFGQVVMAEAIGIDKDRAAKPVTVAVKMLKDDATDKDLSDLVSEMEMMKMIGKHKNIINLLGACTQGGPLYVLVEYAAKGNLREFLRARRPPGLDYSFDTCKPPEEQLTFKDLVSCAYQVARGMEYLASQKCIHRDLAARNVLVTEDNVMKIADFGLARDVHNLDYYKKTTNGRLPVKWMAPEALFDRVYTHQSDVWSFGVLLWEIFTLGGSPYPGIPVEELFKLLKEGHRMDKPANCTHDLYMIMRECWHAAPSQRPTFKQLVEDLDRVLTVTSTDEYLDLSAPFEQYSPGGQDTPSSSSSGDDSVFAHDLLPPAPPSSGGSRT

B2: PRO-054: HuCAL clone anti-FGFR3 antibody; VH-CDR3 SEQ ID NO:8, VL-CDR3 SEQ ID NO:17 (antibody, V domains shown)
VH: QVQLVQSGAEVKKPGASVKVSCKASGYTFTSYYMHWVRQAPGQGLEWMGWINPNSGGTNYAQKFQGRVTMTRDTSISTAYMELSSLRSEDTAVYYCARNMAYTNYQYVNMPHFDYWGQGTLVTVSS
VL: DIELTQPPSVSVAPGQTARISCSGDALGDKYASWYQQKPGQAPVLVIYDDSDRPSGIPERFSGSNSGNTATLTISGTQAEDEADYYCQSYDYFKLVFGGGTKLTVLGQ
IC50 (FGFR3 [2]): 45 nM

B3: PRO-026: HuCAL clone anti-FGFR3 antibody; VH-CDR3 SEQ ID NO:6, VL-CDR3 SEQ ID NO:15 (antibody, V domains shown)
VH: QVQLVQSGAEVKKPGASVKVSCKASGYTFTSYYMHWVRQAPGQGLEWMGWINPNSGGTNYAQKFQGRVTMTRDTSISTAYMELSSLRSEDTAVYYCARGYWYAYFTYINYGYFDNWGQGTLVTVSS
VL: DIALTQPASVSGSPGQSITISCTGTSSDVGGYNYVSWYQQHPGKAPKLMIYDVSNRPSGVSNRFSGSKSGNTASLTISGLQAEDEADYYCQSYDNNSDVVFGGGTKLTVLGQ
Kd (FGFR3 [1]): 1.4 nM
IC50 (FGFR3 [2]): 70 nM

B4: PRO-055: HuCAL clone anti-FGFR3 antibody; VH-CDR3 SEQ ID NO:9, VL-CDR3 SEQ ID NO:18 (antibody, V domains shown)
VH: QVQLVQSGAEVKKPGASVKVSCKASGYTFTSYYMHWVRQAPGQGLEWMGWINPNSGGTNYAQKFQGRVTMTRDTSISTAYMELSSLRSEDTAVYYCARSMNSTMYWYLRRVLFDHWGQGTLVTVSS
VL: B3 VL with N95M, N96Y, S97N, D98Y, V99I
IC50 (FGFR3 [2]): 34 nM

B5: PRO-002: HuCAL clone anti-FGFR3 antibody; VH-CDR3 SEQ ID NO:2, VL-CDR3 SEQ ID NO:11 (antibody, V domains shown)
VH: QVQLVQSGAEVKKPGASVKVSCKASGYTFTSYYMHWVRQAPGQGLEWMGWINPNSGGTNYAQKFQGRVTMTRDTSISTAYMELSSLRSEDTAVYYCARDFLGYEFDYWGQGTLVTVSS
VL: DIELTQPPSVSVAPGQTARISCSGDALGDKYASWYQQKPGQAPVLVIYDDSDRPSGIPERFSGSNSGNTATLTISGTQAEDEADYYCQSYDYSADYVFGGGTKLTVLGQ
Kd (FGFR3 [1]): 43 nM
IC50 (FGFR3 [2]): 360 nM

Molecules with a lower IC50 (FGFR3 [2]), results first:

Kd (FGFR3 [1]): < 1 nM
IC50 (FGFR3 [2]): 20 nM
B1: PRO-029: HuCAL clone anti-FGFR3 antibody; VH-CDR3 SEQ ID NO:7, VL-CDR3 SEQ ID NO:16 (antibody, V domains shown)
VH: QVQLVQSGAEVKKPGASVKVSCKASGYTFTSYYMHWVRQAPGQGLEWMGWINPNSGGTNYAQKFQGRVTMTRDTSISTAYMELSSLRSEDTAVYYCARTWQYSYFYYLDGGYYFDIWGQGTLVTVSS
VL: DIVLTQSPATLSLSPGERATLSCRASQSVSSSYLAWYQQKPGQAPRLLIYGASSRATGVPARFSGSGSGTDFTLTISSLEPEDFATYYCQQTNNAPVTFGQGTKVEIKRT

Kd (FGFR3 [1]): 0.7 nM
IC50 (FGFR3 [2]): 19 nM
B6: PRO-001: HuCAL clone anti-FGFR3 antibody; VH-CDR3 SEQ ID NO:1, VL-CDR3 SEQ ID NO:10; VH SEQ ID NO:19, VL SEQ ID NO:28 (antibody, V domains shown)
VH: QVQLQQSGPGLVKPSQTLSLTCAISGDSVSSNSAAWNWIRQSPGRGLEWLGRTYYRSKWYNDYAVSVKSRITINPDTSKNQFSLQLNSVTPEDTAVYYCARSYYPDFDYWGQGTLVTVSS
VL: B5 VL with Y92G, S93P, A94D, D95L, Y96W
modifications: SEQUENCE FROM PHAGE LIBRARY
